These results are taken from paper PMC12475274, “Harnessing indole scaffolds to identify small-molecule IRE1α inhibitors modulating XBP1 mRNA splicing” (Nature Communications, 2025).

This data set deals with the molecule itself. In words: crystal structure; p-IRE1α (15 mg/mL) co-crystallised with 1 mM IA107; hanging drop, 0.05 M bicine pH 9.0, 36% PEG300, 0.12 M NaCl, 20 °C; four copies in the asymmetric unit.

B1: phosphorylated human IRE1α kinase and RNase domain (residues 547–977) (domain or fragment, UniProt O75460 547-977, looked up)
chain: GSSPSLEQDDGDEETSVVIVGKISFCPKDVLGHGAEGTIVYRGMFDNRDVAVKRILPECFSFADREVQLLRESDEHPNVIRYFCTEKDRQFQYIAIELCAATLQEYVEQKDFAHLGLEPITLLQQTTSGLAHLHSLNIVHRDLKPHNILISMPNAHGKIKAMISDFGLCKKLAVGRHSFSRRSGVPGTEGWIAPEMLSEDCKENPTYTVDIFSAGCVFYYVISEGSHPFGKSLQRQANILLGACSLDCLHPEKHEDVIARELIEKMIAMDPQKRPSAKHVLKHPFFWSLEKQLQFFQDVSDRIEKESLDGPIVKQLERGGRAVVKMDWRENITVPLQTDLRKFRTYKGGSVRDLLRAMRNKKHHYRELPAEVRETLGSLPDDFVCYFTSRFPHLLAHTYRAMELCSHERLFQPYYFHEPPEPQPPVTPDAL
modifications: phosphorylated (fully phosphorylated fraction, verified by LC-MS); the phosphorylated residues are not given
notes: Human IRE1α (inositol-requiring enzyme 1 alpha), kinase and RNase domain, residues 547-977; Fully phosphorylated fraction separated from the unphosphorylated protein on the anion exchange column; also called p-IRE1α; phosphorylated IRE1α
Take B1: the binding result is reported as “binds”.
